Laboratory results taken from patent US12466854B2, “Peptide useful for the transport of molecules through cell barriers” (UNIVERSITÉ GRENOBLE ALPES, priority 2022, dated 2025).

Test system: differentiated cellular BBB model
Test: Study B: permeability of the nanobodies and conjugates through differentiated cellular BBB model (ELISA)
Format: in vitro ADME, rats
Conditions: samples at 60 and 120 min, FIG. 7
Description: Cerebral microvessel endothelial cells prepared from 5-week-old male rats were seeded on microporous filters in order to: • evaluate the toxicity of the nanobodies and conjugates during their transfer by kinetic measurement of the sucrose transfer. • evaluate the permeability of the nanobodies and conjugates in the blood/brain direction. Experimental Conditions: • The endothelial cells were seeded on 28 Transwell Polycarbonate filters (porosity 0.4 μm and diameter 12 mm), and cultured in differentiation medium. • The measurement of toxicity (study A) or permeability (study B) of the nanobodies and conjugates was carried out in HBSS Ca/Mg medium supplemented with 0.1% BSA.
For study B, the medium collected at 60 min basolaterally was replaced by the same volume of fresh medium.
The samples collected at 60 and 120 min were analyzed by ELISA test to evaluate the quantity of nanobodies and conjugates which passed during study B. To be able to analyze the different samples by ELISA, it was necessary to first purify them to remove BSA limiting adhesion to 96-well plates of ELISA test. Thanks to the polyhistidine label present on the 3 nanobodies and conjugates, purifications on a 96-well plate coated with Nickel-NTA were carried out. […]
An absorbance reading was carried out at 450 nm after stopping the colorimetric reaction using a 1 N HCl solution. […]

B1: 2C5: anti-Tau nanobody (VHH, SEQ ID NO: 3) detecting pathological oligomeric forms of Tau protein (protein)
VHH: QVQLVQSGGGLVQAGGSLRLSCAASGRTFSSDTLAWFRQAPGKEREFVASISPSGGVTYYEDSVKGRFTISRDNSKNTVLLQMNSLTPEDTAVYYCNRDPKYGNTRYWGQGTQVTVSSAAA
  passage through the BBB model (blood/brain direction): not passing this model
